Test results published in patent US20250326828A1 (STAIDSON BEIJING BIOPHARMACEUTICALS, published 2025).
Positions count from the first letter of the chain named.

T1: human GDF15-hFc (human)
T1 construct: Recombinant hFc-tagged fusion protein expressed in 293F cells
T1 chain: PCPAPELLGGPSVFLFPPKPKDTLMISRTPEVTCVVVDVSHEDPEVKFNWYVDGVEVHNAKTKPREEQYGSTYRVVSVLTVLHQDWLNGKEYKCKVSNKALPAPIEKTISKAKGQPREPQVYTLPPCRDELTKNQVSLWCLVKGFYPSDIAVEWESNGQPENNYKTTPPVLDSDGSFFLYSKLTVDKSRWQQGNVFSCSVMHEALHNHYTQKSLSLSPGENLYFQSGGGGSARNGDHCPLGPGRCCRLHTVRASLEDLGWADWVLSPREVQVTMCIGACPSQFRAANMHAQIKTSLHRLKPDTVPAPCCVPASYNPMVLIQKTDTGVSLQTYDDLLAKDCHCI

T2: mouse GDF15-hFc (mouse)
T2 chain: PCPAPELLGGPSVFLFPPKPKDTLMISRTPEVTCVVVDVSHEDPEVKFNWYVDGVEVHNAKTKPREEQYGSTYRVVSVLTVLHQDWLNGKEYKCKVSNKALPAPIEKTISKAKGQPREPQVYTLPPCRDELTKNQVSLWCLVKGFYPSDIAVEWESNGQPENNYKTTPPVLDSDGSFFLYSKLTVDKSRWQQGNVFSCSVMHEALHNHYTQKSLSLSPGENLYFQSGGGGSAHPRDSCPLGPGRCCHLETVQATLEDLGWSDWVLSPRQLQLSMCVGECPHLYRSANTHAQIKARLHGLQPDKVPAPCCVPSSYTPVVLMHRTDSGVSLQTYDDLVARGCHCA

T3: rhesus monkey GDF15-hFc (rhesus monkey)
T3 chain: T1 chain with H237R, R252H, A285E, T294M, S295N, I343V

T4: human GDF15-his (human)
T4 chain: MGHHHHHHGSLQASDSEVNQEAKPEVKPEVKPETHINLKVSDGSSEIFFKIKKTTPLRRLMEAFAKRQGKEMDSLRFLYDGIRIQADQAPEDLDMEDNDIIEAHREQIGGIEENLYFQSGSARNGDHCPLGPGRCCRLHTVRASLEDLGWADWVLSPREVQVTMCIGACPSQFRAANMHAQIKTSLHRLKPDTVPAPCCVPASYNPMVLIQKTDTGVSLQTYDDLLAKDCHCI

B1: hum_R37-2 (antibody, V domains shown)
VH: EVQLVESGGGLVKPGGSLRLSCAASGFSLSNYYMSWVRQAPGKGLEWIGMISFSGTTYATWAKGRFTISKDSSTVYLQINSLKTEDTAVYFCARVVYAGWTYPLGIWGQGTLVTVSS
VL: DIQLTQSPSSLSASVGDRVTITCQASQSISSVLSWYQQKPGKPPKALIYEASILASGVPSRFSGSGSGTDFTLTISSLQPEDFATYYCQANYDVYNYGNPFGGGTKVEIK
notes: Tested in human IgG1 format
B2: hum_R37-5 (antibody, V domains shown)
VH: EVQLVESGGGLVKPGGSLRLSCAASGFSLSNYYMSWVRQAPGKGLEWVGMISFSGTTYATWAKGRFTISRDDSKNTVYLQINSLKTEDTAVYFCARVVYAGWTYPLGIWGQGTLVTVSS
VL: B1 VL
notes: Tested in human IgG1 format
B3: GDF-R46-rabIg1 (antibody, V domains shown)
VH: SQTVKESGGRLVTPGTPLTLTCTASGFSLSNYYMSWVRQAPGEGLEWIGMISFSGTTHATWAKGRFTISKTSTTVDLKITSPTSEDTATYFCARVVYAGWTYPLGIWGPGTLVTVSS
VL: AQVMTQTPASVSEPVGGTVTIKCQASQSISSVLSWYQQKPGQPPKVLIYEASTLASGVPSRFKGSGSGTDFTLAISDLECADAATYYCQANYDVYNYGNPFGGGTEVVVK
notes: Full-length rabbit antibody: rabbit IgG1 heavy constant and rabbit light constant; also called GDF15-R46-rabIg1
B4: GDF-R40-rabIg1 (antibody, V domains shown)
VH: QSVKESEGRLVTPGTPLTLTCTASGFSLSSHWMSWVRQAPGKGLEWIGFVSPSGRAYYTSWVNGRFTISKTSTTVDLKITSPTTEDTATYFCARGYTSGLDIWGPGTLVTVSS
VL: AIDMTQTPSPVSATVGGTVTISCQSSKSVVNGDWLAWYQQKPGQPPKLLIYDAATLASGVPSRFKGSGSGTQFTLTISDVQCADAATYYCAGVYNNDSDNGFGGGTEVVVK
notes: Full-length rabbit antibody: rabbit IgG1 heavy constant and rabbit light constant; also called GDF15-R40-rabIg1
B5: hum_R54-1 (antibody, V domains shown)
VH: EVQLLESGGGLVQPGGSLRLSCAVSGFSLSSYDMTWVRQAPGKGLEWIGIISGSGNTYYASWAKGRFTISRDNSKNTVYLQMNSLRAEDTAVYFCARGILVYADYGDHNLWGQGTLVTVSS
VL: DIVMTQSPATLSVSPGERATLSCQASEDIYTNLAWFQQKPGQPPRLLIYAASTLASGIPARFSGSGSGTEFTLTISSLQSEDFAVYFCLGVYTYISAEGAFGQGTKVEIK
notes: Tested in human IgG1 format
B6: hum_R54-5 (antibody, V domains shown)
VH: B5 VH with R71K, N73S
VL: B5 VL with F87Y
notes: Tested in human IgG1 format
B7: hum_R54-7 (antibody, V domains shown)
VH: B5 VH with G53N, N56S, R71K, N73S
VL: B5 VL with F87Y
notes: Tested in human IgG1 format
B8: hum_R54-8 (antibody, V domains shown)
VH: B5 VH with N56S, R71K, N73S
VL: B5 VL with F87Y
notes: Tested in human IgG1 format
B9: hum_R54-2 (antibody, V domains shown)
VH: B5 VH with G53S
VL: B5 VL
notes: Tested in human IgG1 format
B10: hum_R54-3 (antibody, V domains shown)
VH: B5 VH with G53N, N56S
VL: B5 VL
notes: Tested in human IgG1 format
B11: hum_R54-6 (antibody, V domains shown)
VH: B5 VH with G53S, R71K, N73S
VL: B5 VL with F87Y
notes: Tested in human IgG1 format
B12: hum_R54-4 (antibody, V domains shown)
VH: B5 VH with N56S
VL: B5 VL
notes: Tested in human IgG1 format
B13: hum_R37-1 (antibody, V domains shown)
VH: B2 VH with V48I, R70K, D72S
VL: B1 VL
notes: Tested in human IgG1 format
B14: hum_R37-3 (antibody, V domains shown)
VH: B2 VH with V48I, R70K
VL: B1 VL
notes: Tested in human IgG1 format

Target: T1, human GDF15-hFc
Assay: SPR, Biacore 8K; antibody on CM5 chip
Protocol: (§1) The binding affinity of anti-GDF15 antibodies for human GDF15, rhesus monkey GDF15, mouse GDF15 were characterized using Biacore 8K (GE). The anti-GDF15 antibodies were stabilized on sensor chip CM5. The binding affinity of antibody for GDF15 proteins from different species at various concentrations was measured. Using the SPR technology, the association and dissociation rates were measured, and binding affinity was determined.

Row | Kd [nM] | koff [s⁻¹] | kon [M⁻¹ s⁻¹] | Binder
1 | 1.07 | 0.000137 | 129000 | B1
2 | 0.584 | 6.95e-05 | 119000 | B2

Target: T2, mouse GDF15-hFc
Assay: SPR, Biacore 8K; antibody on CM5 chip
Protocol: as §1

Row | Kd [nM] | koff [s⁻¹] | kon [M⁻¹ s⁻¹] | Binder
3 | 118 | 0.00175 | 14800 | B1
4 | 106 | 0.000869 | 8210 | B2

Target: T3, rhesus monkey GDF15-hFc
Assay: SPR, Biacore 8K; antibody on CM5 chip
Protocol: as §1

Row | Kd [nM] | koff [s⁻¹] | kon [M⁻¹ s⁻¹] | Binder
5 | 1.28 | 0.00263 | 2.06e+06 | B1
6 | 1.23 | 0.00421 | 3.43e+06 | B2

Target: T1, human GDF15-hFc
Assay: competition ELISA; GFRAL-his coated, antibody titrated against human GDF15-hFc, anti-human IgG-HRP detection
Protocol: (§2) The ELISA assay was performed to measure the inhibitory activity of anti-GDF15 antibodies in concentration gradients to block GDF15 binding to GFRAL receptor. IC₅₀ values were used as a measure for neutralizing activity of candidate molecules. Briefly, 96-well plates were coated with 100 ng/well of GFRAL-his protein (SEQ ID NO: 74), and incubated for 1 h at 37° C. The plates were washed with PBST and then blocked for 1 hour at 37° C. with 1% BSA. Gradient-diluted antibodies (dose range 0˜10 μg/ml) was added into each well, immediately followed by equal volume of human GDF15-hFc protein ([…]). After incubation and washing, 100 μl of anti-human IgG secondary antibody (goat anti-human IgG-HRP, Sigma, A8667) was added to each well. Finally, TMB solution (100 μl/well) was added. 2M H₂SO₄ was used to stop the reaction. The OD450 was measured and the binding curve was generated by PRISM to calculate the IC₅₀ value.

Row | IC50 [nM] | Binder
7 | 1.62 | B3
8 | 1.63 | B4

Target: T4, human GDF15-his
Assay: cell-based or functional assay

Row | IC50, 293T-GFRAL/RET-Luc SRE luciferase reporter cells stimulated with human GDF15-his (15 ng/ml) [nM] | Binder
9 | 0.19 | B3
10 | 0.27 | B4

Target: T4, human GDF15-his
Assay: ELISA as in Example 2; antibody coated, human GDF15-his titrated
Protocol: (§3) ELISA binding assay: The purified monoclonal antibody was subjected to a binding assay with human GDF15-his protein. The binding assay was designed to characterize the binding activity of the anti-GDF15 antibody. Briefly, a 96-well plate was coated with anti-GDF15 antibody (200 ng/well) and incubated for 1 hour at 37° C. The plates were washed with PBST and then blocked for 1 hour at room temperature using 1% BSA. Then 100 µl/well of gradient-diluted human GDF15-his solution (dose range 0-50 μg/ml) was added into plates. After incubation, 100 μl of anti-his tag secondary antibody (anti-his-HRP (1:2000), Bersee, cat #BHR790) was added to each well. Finally, the TMB solution (100 μl/well) was added. 2M H₂SO₄ was used to stop the reaction. The OD450 was measured, and the binding curves were generated by PRISM software to analyze the affinity of candidate antibodies to human GDF15 antigen, and EC₅₀ value were calculated.

Row | EC50 [nM] | Binder
11 | 142 | B5
12 | 98.4 | B6
13 | 111 | B7
14 | 91.7 | B8
15 | 156 | B9
16 | 173 | B10
17 | 123 | B11
18 | 167 | B12

Target: T1, human GDF15-hFc
Assay: competition ELISA as in Example 2; GFRAL-his coated, antibody titrated against human GDF15-hFc
Protocol: as §2

Row | IC50 [nM] | Binder
19 | 1 | B5
20 | 0.89 | B6
21 | 1.36 | B7
22 | 1 | B8
23 | 0.8 | B9
24 | 1.24 | B10
25 | 1.49 | B11
26 | 1.14 | B12
27 | 1.74 | B13
28 | 1.72 | B1
29 | 1.73 | B14
30 | 1.9 | B2

Target: T4, human GDF15-his
Assay: cell-based or functional assay
Remark: another data set of the same source

Row | IC50, GFRAL/RET reporter cell assay as in Example 2 [nM] | Binder
31 | 0.11 | B5
32 | 0.08 | B6
33 | 0.04 | B7
34 | 0.03 | B8
35 | 0.1 | B9
36 | 0.07 | B10
37 | 0.05 | B11
38 | 0.08 | B12

Target: T4, human GDF15-his
Assay: cell-based or functional assay
Remark: another data set of the same source

Row | IC50 (read off the curve), SRE-luciferase signal in 293T-GFRAL/RET-Luc cells with human GDF15-his [nM] | Binder
39 | ~0.2 | B13
40 | ~0.1 | B1
41 | ~0.1 | B14
42 | ~0.1 | B2

Target: T4, human GDF15-his
Assay: ELISA as in Example 2: plate coated with the antibody, graded human GDF15-his, anti-his-HRP, OD450; the sheet's x axis reads 'Log GDF15 Antibody (nM)'
Protocol: as §3

Row | EC50 (read off the curve) [nM] | Binder
43 | ~50 | B13
44 | ~60 | B1
45 | ~60 | B14
46 | ~60 | B2
